In a protein production outcome set (Wang et al. 2014):

Experiment: label from the status in PepcDB records

Row | Sequence | protein production
1 | MSLKISLENVGCASQIGKRKENEDRFDFAQLTDEVLYFAVYDGHGGPAAADFCHTHMEKCIMDLLPKEKNLETLLTLAFLEIDKAFSSHARLSADATLLTSGTTATVALLRDGIELVVASVGDSRAILCRKGKPMKLTIDHTPERKDEKERIKKCGGFVAWNSLGQPHVNGRLAMTRSIGDLDLKTSGVIAEPETKRIKLHHADDSFLVLTTDGINFMVNSQEICDFVNQCHDPNEAAHAVTEQAIQYGTEDNSTAVVVPFGAWGKEGHHHHHH | not failed
2 | MSLKITKVEVIPISTPMKRAQLMRGATLARIDGVLLKLHSDEGLVGIADAGDTSSWYRGETQDSITSMICDFFAPKVLLGEDPTKIEKIVGRMDILTRDNNQAKATVDFALHDLVGKRFGVPVYQLLGGKTIERIPLGLVLGAGEPEAVAEEALAVLREGFHFVKLKAGGPLKADIAMVAEVRRAVGDDVDLFIDINGAWTYDQALTTIRALEKYNLSKIEQPLPAWDLDGMARLRGKVATPIYADESAQELHDLLAIINKGAADGLMIKTQKAGGLLKAQRWLTLARLANLPVICGCMVGSGLEASPAAHLLAANDWIAQFPQENAGPLHIHDCLNSRDIDNDIALNVPRFEGGYLYPNDGPGLGIELNEDLVRRLVTPGKAARVVTAEGHHHHHH | not failed
3 | MSLKITRIDIHRTDLPVRGGVYRLSGGREYHSYDATIVSIETDTGLTGWGESTPFGSTYIAAHAGGTRAALELLAPAILGMDPRQHDRIWDRMRDTLKGHRDARAALDIACWDIAAQAAGLPLCDMTGGRVAGPVPVISSIGGDTPEAMRAKVARHRAQGFKGHSIKIGASEAEGGPALDAERITACLADRQPGEWYLADANNGLTVEHALRMLSLLPPGLDIVLEAPCASWAETKSLRARCALPLLLDELIQTETDLIAAIRDDLCDGVGLKVSKQGGITPMLRQRAIAAAAGMVMSVQDTVGSQISFAAILHLAQSTPRHLLRCALDTRAMTTAELAEIDAPLRDGGASAPSDPGLGLRVNRDALGTPVKTFGDPIEGHHHHHH | not failed
4 | MSLKKVLLCVGNELRGDDGVAIALGRLVEEQMPEWSVFFGYDTPESEFGKLRELAPDVIVVADAMSGFKEGEIEFLDLSDERTYLYSTHNLPTPILISYLRGICSKTIFLGISVLLENVLHFSEGLSQGASDSAFVALGRIKELDGMLKEGHHHHHH | not failed
5 | MSLKKVVIIGGGAAGMSAASRVKRLKPEWDVKVFEATEWVSHAPCGIPYVVEGLSTPDKLMYYPPEVFIKKRGIDLHLNAEVIEVDTGYVRVRENGGEKSYEWDYLVFANGASPQVPAIEGVNLKGVFTADLPPDALAIREYMEKYKVENVVIIGGGYIGIEMAEAFAAQGKNVTMIVRGERVLRRSFDKEVTDILEEKLKKHVNLRLQEITMKIEGEERVEKVVTDAGEYKAELVILATGIKPNIELAKQLGVRIGETGAIWTNEKMQTSVENVYAAGDVAETRHVITGRRVWVPLAPAGNKMGYVAGSNIAGKELHFPGVLGTAVTKFMDVEIGKTGLTEMEALKEGYDVRTAFIKASTRPHYYPGGREIWLKGVVDNETNRLLGVQVVGSDILPRIDTAAAMLMAGFTTKDAFFTDLAYAPPFAPVWDPLIVLARVLKEGHHHHHH | not failed
6 | MSLKNSSRSAVDPFIVMDVMEAARRAEEAGRRIIHMEVGQPGTGAPRGAVEALAKSLETDALGYTVALGLPALRQRIARLYGEWYGVDLDPGRVVITPGSSGGFLLAFTALFDSGDRVGIGAPGYPSYRQILRALGLVPVDLPTAPENRLQPVPADFAGLDLAGLMVASPANPTGTMLDHAAMGALIEAAQAQGASFISDEIYHGIEYEAKAVTALELTDECYVINSFSKYFSMTGWRVGWMVVPEDQVRVVERIAQNMFICAPHASQVAALAALDCDAELQANLDVYKANRKLMLERLPKAGFTRIAPPDGAFYVYADVSDLTDDSRAFAAEILEKAGVAVTPGLDFDPERGAGTLRFSYARATADIEEGLDRLEAFMQARGEGHHHHHH | not failed
7 | MSLKQKILIVEDSMTIRRMLIQAIAQQTGLEIDAFDTLEGARHCQGDEYVVALVDLTLPDAPSGEAVKVLLERGLPVVILTADISEDKREAWLEAGVLDYVMKDSRHSLQYAVGLVHRLYLNQQIEVLVVDDSRTSRHRTMAQLRKQLLQVHEASHAREALATLEQHPAIRLVLVDYYMPEIDGISLVRMLRERYSKQQLAIIGISVSDKRGLSARYLKQGANDFLNQPFEPEELQCRVSHNLEALEQFNSEGHHHHHH | not failed
8 | MSLKQQFSTKAFQAANLEAYKAQMKEMEESFGALLRQLPSDTEVPGLLEDITRTGLGSGLEFEEIKLLPEVAQQFYIELPIQISVVGGYHDLATFVSGVSSLPRIVTLHDFEIKPVAPGSTSKLRMSILAKTYRYNDKGEGHHHHHH | not failed
9 | MSLKTYKGYLIDLDGTMYNGTEKIEEACEFVRTLKDRGVPYLFVTNNSSRTPKQVADKLVSFDIPATEEQVFTTSMATAQHIAQQKKDASVYVIGEEGIRQAIEENGLTFGGENADFVVVGIDRSITYEKFAVGCLAIRNGARFISTNGDIAIPTERGLLPGNGSLTSVLTVSTGVQPVFIGKPESIIMEQAMRVLGTDVSETLMVGDNYATDIMAGINAGMDTLLVHTGVTKREHMTDDMEKPTHAIDSLTEWIPYIEGHHHHHH | not failed
10 | MSLKYQLRFGGEGGQGVITAGEILAEAAIKEGRQAFKASTYTSQVRGGPTKVDIIIDDKEILFPYAVEGEVDFMLSTADKGYKGFRGGVKEGGIIVVEPNLVHPESEDYKKWQIFEIPIITIAKDEVGNVATQSVVALAIAAYMSKCIDLDVLKETMLHMVPAKTRDANAKAFDLGVKYATQAKPHEGHHHHHH | not failed
11 | MSLLERLNQDMKLYMKNREKDKLTVVRMVKASLQNEAIKLKKDSLTEDEELTVLSRELKQRKDSLQEFSNANRLDLVDKVQKELDILEVYLPEQLSEEELRTIVNETIAEVGASSKADMGKVMGAIMPKVKGKADGSLINKLVSSQLS | not failed
12 | MSLLLTNHIGYERLGPKKAIIQTEQPHLSSYTAQLICATSEQTVATFAVEEQGKVANWHQGYFYLIDFSSFTDSGDYFLQVEDSRSSSFTVGEHILLEQTLSDVIHYFKSQRCGGVFDQQDRQVPVLNANQTADVHGGWYDASGDVSKYLSHLSYANYLNPQQTPMVVWNILKGLSLLEGSEDIAAFTRTRLIEEALFGADFLVRMQNEKGFFYMTVFDKWSKDTAQREICAYETQLGHKFDDYQAGFRQGGGVAIAALAAASRLGVHGEYDQQKYRNAAENGYWHLKEHNTQYLNDGEENIIDEYCALLASVELFKATKETRYLEESRLWAQRLVARQMSDEQIQHFWSANQDGSRPYFHAAEAGLPVIALCEYLAIEDDSVQTESVKRIVNRACEFEIKISNKVTNPFGYPRQYVKGVNESKRDAFFVAHNNESGYWWQGENARLGSLATMAYLAQPHIASQEIQQQLSVFAQDALNWIVGLNPYDMCMLDGHGRNNPDYLPQYGFFNAKGGVCNGITGGFEDEEDIAFNPPAQKDDMLQNWRWGEQWIPHGAWYLLAIMSQAQHISQLATSKNIKEGHHHHHH | not failed
13 | MSLNGKLDFSNRQARILYNKAIAKALFGLDIEYHPKGLVTTPISRYIFLKTFLRGGEVALEIGTGHTAMMALMAEKFFNCKVTATEVDEEFFEYARRNIERNNSNVRLVKSNGGIIKGVVEGTFDVIFSAPPYYDKPLGRVLTEREAIGGGKYGEEFSVKLLEEAFDHLNPGGKVALYLPDKEKLLNVIKERGIKLGYSVKDIKFKVGTRWRHSLIFFKGISEGHHHHHH | not failed
14 | MSLNHHPIIYLVDHQKDARAALSKLLSPLDVTIQCFASAESFMRQQISDDAIGMIIEAHLEDKKDSGIELLETLVKRGFHLPTIVMASSSDIPTAVRAMRASAADFIEKPFIEHVLVHDVQQIINGAKEGHHHHHH | not failed
15 | MSLQRVTNCIVVDHDQVLLLQKPRRGWWVAPGGKMEAGESILETVKREYWEETGITVKNPELKGIFSMVIFDEGKIVSEWMLFTFKATEHEGEMLKQSPEGKLEWKKKDEVLELPMAAGDKWIFKHVLHSDRLLYGTFHYTPDFELLSYRLDPEPQMKKKGIITITTDPNSSSVDKLAAALEHHHHHH | not failed
16 | MSLQTKILIIDGDKDNCQKLKGFLEEKGISIDLAYNCEEAIGKIFSNKYDLIFLEIILSDGDGWTLCKKIRNVTTCPIVYMTYINEDQSILNALNSGGDDYLIKPLNLEILYAKVKAILRRMNSYVNNEGHHHHHH | not failed
